Measured values: PMC9854190

Target: HA-Akt, P31749
Assay: co-immunoprecipitation (FLAG beads), HA-Akt band quantified
Conditions: chain shown with the change, HEK-293 cells expressing D3R, n = 3, read off a plot

HA-Akt, P31749, sequence (P31749 whole entry): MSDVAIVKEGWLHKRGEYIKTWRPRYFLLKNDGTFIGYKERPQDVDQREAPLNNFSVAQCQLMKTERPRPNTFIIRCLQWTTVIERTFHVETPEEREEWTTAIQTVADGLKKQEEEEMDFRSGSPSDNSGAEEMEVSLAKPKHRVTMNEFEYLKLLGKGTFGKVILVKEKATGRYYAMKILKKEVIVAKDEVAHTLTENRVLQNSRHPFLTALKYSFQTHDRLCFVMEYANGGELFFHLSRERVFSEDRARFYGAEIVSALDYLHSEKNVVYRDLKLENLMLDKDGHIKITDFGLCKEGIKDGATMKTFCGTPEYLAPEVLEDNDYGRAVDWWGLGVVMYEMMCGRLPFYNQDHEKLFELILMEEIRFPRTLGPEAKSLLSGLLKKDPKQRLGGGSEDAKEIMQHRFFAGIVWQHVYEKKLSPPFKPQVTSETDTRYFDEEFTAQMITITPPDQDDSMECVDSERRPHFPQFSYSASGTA

B1: FLAG-USP33, Q8TEY7-2 T154A (protein)
chain: MSAFRNHCPHLDSVGEITKEDLIQKSLGTCQDCKVQGPNLWACLENRCSYVGCGESQVDHSTIHSQETKHYLTVNLTTLRVWCYACSKEVFLDRKLGTQPSLPHVRQPHQIQENSVQDFKIPSNTTLKTPLVAVFDDLDIEADEEDELRARGLAGLKNIGNTCYMNAALQALSNCPPLTQFFLDCGGLARTDKKPAICKSYLKLMTELWHKSRPGSVVPTTLFQGIKTVNPTFRGYSQQDAQEFLRCLMDLLHEELKEQVMEVEEDPQTITTEETMEEDKSQSDVDFQSCESCSNSDRAENENGSRCFSEDNNETTMLIQDDENNSEMSKDWQKEKMCNKINKVNSEGEFDKDRDSISETVDLNNQETVKVQIHSRASEYITDVHSNDLSTPQILPSNEGVNPRLSASPPKSGNLWPGLAPPHKKAQSASPKRKKQHKKYRSVISDIFDGTIISSVQCLTCDRVSVTLETFQDLSLPIPGKEDLAKLHSSSHPTSIVKAGSCGEAYAPQGWIAFFMEYVKRFVVSCVPSWFWGPVVTLQDCLAAFFARDELKGDNMYSCEKCKKLRNGVKFCKVQNFPEILCIHLKRFRHELMFSTKISTHVSFPLEGLDLQPFLAKDSPAQIVTYDLLSVICHHGTASSGHYIAYCRNNLNNLWYEFDDQSVTEVSESTVQNAEAYVLFYRKSSEEAQKERRRISNLLNIMEPSLLQFYISRQWLNKFKTFAEPGPISNNDFLCIHGGVPPRKAGYIEDLVLMLPQNIWDNLYSRYGGGPAVNHLYICHTCQIEAEKIEKRRKTELEIFIRLNRAFQKEDSPATFYCISMQWFREWESFVKGKDGDPPGPIDNTKIAVTKCGNVMLRQGADSGQISEETWNFLQSIYGGGPEVILRPPVVHVDPDILQAEEKIEVETRSL
Quin +, parent: est. 0.97
  other: Folds of Co-IP: 0.74 fold
Quin w/+ (desensitization condition), parent: est. 1.7
  other: Folds of Co-IP: 0.86 fold
Veh (Quin -), parent: est. 0.97
  other: Folds of Co-IP: 0.9 fold
